Results published in the supplement of paper PMC10567573.

B1: DLC1 (parent)
chain: HVTHWMGQPFNSDDRNTACHHGLV
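Further: lentivirally expressed fusions sorted by FACS into six bins by GFP to DsRed ratio, PSI derived from sequencing read proportions per bin multiplied by bin number.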

Variants of: B1
Assay: protein stability index of a GFP-peptide fusion (GPS, HEK-293T) (PSI 1-6); higher = more stable
Details: c terminus: a fixed tail appended
HVTHWMGQPFNSDDYNTACHHGLV [R15Y] showed a protein stability index of 1.74. HVTHWMGQPFNSDDLNTACHHGLV [R15L] gave a protein stability index of 2.29. In the case of HVTHWMGQPFNSDDWNTACHHGLV [R15W], the protein stability index is reported as 1.73. With HVTHWMGQPFNSDDQNTACHHGLV [R15Q] the protein stability index was 2.01. Work on HVTHWMGQPFNSDDPNTACHHGLV [R15P] yielded a protein stability index of 1.82. For HVTHWMGQPFNSDDSNTACHHGLV [R15S], the protein stability index was 2.4. Variant HVTHWMGQPFNSDDNNTACHHGLV [R15N] has a protein stability index of 2.38. Work on HVTHWMGQPFNSDDKNTACHHGLV [R15K] yielded a protein stability index of 2.11. Variant HVTHWMGQPFNSDDINTACHHGLV [R15I] has a protein stability index of 1.95. Work on HVTHWMGQPFNSDDTNTACHHGLV [R15T] yielded a protein stability index of 2.31. With HVTHWMGQPFNSDDHNTACHHGLV [R15H] the protein stability index was 2.06. For HVTHWMGQPFNSDDDNTACHHGLV [R15D], the protein stability index was 2.23. With HVTHWMGQPFNSDDENTACHHGLV [R15E] the protein stability index was 2.32. Variant HVTHWMGQPFNSDDANTACHHGLV [R15A] has a protein stability index of 2.22. HVTHWMGQPFNSDDMNTACHHGLV [R15M] showed a protein stability index of 1.83. With HVTHWMGQPFNSDDGNTACHHGLV [R15G] the protein stability index was 1.94. Work on HVTHWMGQPFNSDDFNTACHHGLV [R15F] yielded a protein stability index of 2.25. In the case of HVTHWMGQPFNSDDCNTACHHGLV [R15C], the protein stability index is reported as 1.99. Variant HVTHWMGQPGNSDDRNTACHHGLV [F10G] has a protein stability index of 2.77. HVTHWMGQPENSDDRNTACHHGLV [F10E] showed a protein stability index of 2.75. HVTHWMGQPNNSDDRNTACHHGLV [F10N] gave a protein stability index of 2.86. In the case of HVTHWMGQPINSDDRNTACHHGLV [F10I], the protein stability index is reported as 2.04. In the case of HVTHWMGQPTNSDDRNTACHHGLV [F10T], the protein stability index is reported as 2.29. With HVTHWMGQPMNSDDRNTACHHGLV [F10M] the protein stability index was 2.53. Variant HVTHWMGQPQNSDDRNTACHHGLV [F10Q] has a protein stability index of 2.5. HVTHWMGQPKNSDDRNTACHHGLV [F10K] gave a protein stability index of 2.78. HVTHWMGQPHNSDDRNTACHHGLV [F10H] gave a protein stability index of 2.05. Work on HVTHWMGQPDNSDDRNTACHHGLV [F10D] yielded a protein stability index of 3.03. Variant HVTHWMGQPRNSDDRNTACHHGLV [F10R] has a protein stability index of 2.79. In the case of HVTHWMGQPANSDDRNTACHHGLV [F10A], the protein stability index is reported as 2.53. HVTHWMGQPLNSDDRNTACHHGLV [F10L] gave a protein stability index of 2.01. HVTHWMGQPVNSDDRNTACHHGLV [F10V] gave a protein stability index of 2.36. With HVTHWMGQPPNSDDRNTACHHGLV [F10P] the protein stability index was 2.54. With HVTHWMGQPSNSDDRNTACHHGLV [F10S] the protein stability index was 2.35. HVTHWMGQPYNSDDRNTACHHGLV [F10Y] gave a protein stability index of 1.92. HVTHWMGQPCNSDDRNTACHHGLV [F10C] showed a protein stability index of 1.94. With HVTHWMGQPWNSDDRNTACHHGLV [F10W] the protein stability index was 1.93. Work on HVTHWMGQPFNSDWRNTACHHGLV [D14W] yielded a protein stability index of 1.65. With HVTHWMGQPFNSDMRNTACHHGLV [D14M] the protein stability index was 1.64. HVTHWMGQPFNSDTRNTACHHGLV [D14T] gave a protein stability index of 1.99. In the case of HVTHWMGQPFNSDKRNTACHHGLV [D14K], the protein stability index is reported as 1.47. HVTHWMGQPFNSDNRNTACHHGLV [D14N] gave a protein stability index of 1.86. HVTHWMGQPFNSDYRNTACHHGLV [D14Y] gave a protein stability index of 1.44. Work on HVTHWMGQPFNSDLRNTACHHGLV [D14L] yielded a protein stability index of 1.31. HVTHWMGQPFNSDQRNTACHHGLV [D14Q] gave a protein stability index of 2.31. With HVTHWMGQPFNSDFRNTACHHGLV [D14F] the protein stability index was 2.35. Variant HVTHWMGQPFNSDCRNTACHHGLV [D14C] has a protein stability index of 1.68. For HVTHWMGQPFNSDHRNTACHHGLV [D14H], the protein stability index was 2.66. Variant HVTHWMGQPFNSDIRNTACHHGLV [D14I] has a protein stability index of 1.53. For HVTHWMGQPFNSDRRNTACHHGLV [D14R], the protein stability index was 2.01. In the case of HVTHWMGQPFNSDARNTACHHGLV [D14A], the protein stability index is reported as 1.9. With HVTHWMGQPFNSDVRNTACHHGLV [D14V] the protein stability index was 1.71. Variant HVTHWMGQPFNSDPRNTACHHGLV [D14P] has a protein stability index of 2.16. Work on HVTHWMGQPFNSDGRNTACHHGLV [D14G] yielded a protein stability index of 1.86. For HVTHWMGQPFNSDSRNTACHHGLV [D14S], the protein stability index was 1.83. HVTHWMGQPFNSDERNTACHHGLV [D14E] showed a protein stability index of 1.7. With HVTHWMGQPFNSDDRETACHHGLV [N16E] the protein stability index was 2.35. For HVTHWMGQPFNSDDRKTACHHGLV [N16K], the protein stability index was 1.98. Variant HVTHWMGQPFNSDDRMTACHHGLV [N16M] has a protein stability index of 1.76. In the case of HVTHWMGQPFNSDDRFTACHHGLV [N16F], the protein stability index is reported as 1.92. HVTHWMGQPFNSDDRGTACHHGLV [N16G] showed a protein stability index of 1.97. For HVTHWMGQPFNSDDRITACHHGLV [N16I], the protein stability index was 2.13. For HVTHWMGQPFNSDDRATACHHGLV [N16A], the protein stability index was 1.75. HVTHWMGQPFNSDDRPTACHHGLV [N16P] showed a protein stability index of 1.64. With HVTHWMGQPFNSDDRCTACHHGLV [N16C] the protein stability index was 2.54. In the case of HVTHWMGQPFNSDDRWTACHHGLV [N16W], the protein stability index is reported as 1.3. HVTHWMGQPFNSDDRHTACHHGLV [N16H] gave a protein stability index of 2.43. For HVTHWMGQPFNSDDRLTACHHGLV [N16L], the protein stability index was 1.8. HVTHWMGQPFNSDDRQTACHHGLV [N16Q] gave a protein stability index of 2.67. Work on HVTHWMGQPFNSDDRYTACHHGLV [N16Y] yielded a protein stability index of 2.32. In the case of HVTHWMGQPFNSDDRVTACHHGLV [N16V], the protein stability index is reported as 1.22. For HVTHWMGQPFNSDDRDTACHHGLV [N16D], the protein stability index was 2.35. In the case of HVTHWMGQPFNSDDRSTACHHGLV [N16S], the protein stability index is reported as 1.81. Variant HVTHWMGQPFNSDDRTTACHHGLV [N16T] has a protein stability index of 1.99. Variant HVTHWMGQPFNSDDRRTACHHGLV [N16R] has a protein stability index of 2.16. In the case of HVTHWMGQIFNSDDRNTACHHGLV [P9I], the protein stability index is reported as 1.75. Variant HVTHWMGQNFNSDDRNTACHHGLV [P9N] has a protein stability index of 2.2. For HVTHWMGQLFNSDDRNTACHHGLV [P9L], the protein stability index was 2. In the case of HVTHWMGQMFNSDDRNTACHHGLV [P9M], the protein stability index is reported as 2.38. HVTHWMGQFFNSDDRNTACHHGLV [P9F] showed a protein stability index of 1.43. With HVTHWMGQGFNSDDRNTACHHGLV [P9G] the protein stability index was 1.88. HVTHWMGQAFNSDDRNTACHHGLV [P9A] gave a protein stability index of 2.36. Work on HVTHWMGQQFNSDDRNTACHHGLV [P9Q] yielded a protein stability index of 2.4. HVTHWMGQKFNSDDRNTACHHGLV [P9K] gave a protein stability index of 1.9. Work on HVTHWMGQWFNSDDRNTACHHGLV [P9W] yielded a protein stability index of 1.6. Work on HVTHWMGQVFNSDDRNTACHHGLV [P9V] yielded a protein stability index of 1.55. For HVTHWMGQRFNSDDRNTACHHGLV [P9R], the protein stability index was 2.21. Work on HVTHWMGQYFNSDDRNTACHHGLV [P9Y] yielded a protein stability index of 2.43. HVTHWMGQHFNSDDRNTACHHGLV [P9H] showed a protein stability index of 2.23. Work on HVTHWMGQEFNSDDRNTACHHGLV [P9E] yielded a protein stability index of 2.3. In the case of HVTHWMGQCFNSDDRNTACHHGLV [P9C], the protein stability index is reported as 1.75. HVTHWMGQDFNSDDRNTACHHGLV [P9D] gave a protein stability index of 1.99. HVTHWMGQSFNSDDRNTACHHGLV [P9S] showed a protein stability index of 2.06. In the case of HVTHWMGQTFNSDDRNTACHHGLV [P9T], the protein stability index is reported as 2.29.
